# Data as given in publication PMC11406360, “The enzymatic oxygen sensor cysteamine dioxygenase binds its protein substrates through their N-termini” (The Journal of Biological Chemistry, 2024).
# *1 amine or outer side, *2 acyl side, *3 side chain or, on linkers, in order; H or OH if unused. Where a SMILES comes first, the peptide text is derived from it. Where no end group is shown, it is not given here. [ ]: non-standard residue; d: D form. Cys(O2H) = cysteine sulfinic acid (N-terminal cysteine sulfinylated), O=C([C@H](CS(=O)O[*:3])N[*:1])[*:2]
# T1: ADO (2-aminoethanethiol dioxygenase), iron-bound wild type (Homo sapiens, UniProt Q96SZ5)
# T1 construct: Full-length human ADO (UniProt ID: Q96SZ5) was cloned; made in house; host or cells: Rosetta2(DE3) Escherichia coli
# T1 sequence (Q96SZ5 1-270): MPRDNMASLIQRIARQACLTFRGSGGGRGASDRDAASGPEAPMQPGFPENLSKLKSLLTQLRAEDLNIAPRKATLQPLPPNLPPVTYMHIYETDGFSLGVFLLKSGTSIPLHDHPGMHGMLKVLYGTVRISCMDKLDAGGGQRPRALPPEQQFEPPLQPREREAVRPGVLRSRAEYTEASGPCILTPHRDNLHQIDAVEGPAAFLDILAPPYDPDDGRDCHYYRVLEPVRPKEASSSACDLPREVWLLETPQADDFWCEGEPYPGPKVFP
# T2: 2-aminoethanethiol (cysteamine) dioxygenase (ADO), biotinylated, for SPR (human, UniProt Q96SZ5 1-270, biotin (N terminally biotinylated; 0.2 mM biotin added at induction))
# T2 chain: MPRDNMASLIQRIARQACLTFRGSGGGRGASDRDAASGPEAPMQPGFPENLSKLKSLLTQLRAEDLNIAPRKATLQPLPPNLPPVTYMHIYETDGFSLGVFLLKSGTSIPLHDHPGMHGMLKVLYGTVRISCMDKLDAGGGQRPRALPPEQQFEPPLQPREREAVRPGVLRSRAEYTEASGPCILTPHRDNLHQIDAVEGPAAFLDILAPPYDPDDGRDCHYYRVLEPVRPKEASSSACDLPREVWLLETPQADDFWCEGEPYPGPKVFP
# T3: 2-aminoethanethiol (cysteamine) dioxygenase (ADO), biotinylated, for SPR (human, UniProt Q96SZ5 1-270, biotin (N terminally biotinylated; 0.2 mM biotin added at induction))
# T3 construct: 2-aminoethanethiol (cysteamine) dioxygenase (ADO), human, UniProt Q96SZ5, full length; In the chelation experiments the metal was removed and iron put back on the chip (see assays a2, a3); Used also as the ADO of the functional rows, although the enzyme assays used the pET28a-ADO construct (N-terminal His tag); also called WT ADO; native ADO; source: E. coli Rosetta2(DE3), pQE80L-Navi construct, …
# T3 sequence (looked up): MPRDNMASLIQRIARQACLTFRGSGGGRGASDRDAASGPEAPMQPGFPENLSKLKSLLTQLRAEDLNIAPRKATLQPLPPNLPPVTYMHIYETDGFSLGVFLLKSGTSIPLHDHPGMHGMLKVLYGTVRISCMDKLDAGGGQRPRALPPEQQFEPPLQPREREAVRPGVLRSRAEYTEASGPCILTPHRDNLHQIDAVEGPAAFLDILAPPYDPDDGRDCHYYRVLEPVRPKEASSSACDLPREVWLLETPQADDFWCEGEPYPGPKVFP
# Tests used:
# [1] = target: T1, ADO (2-aminoethanethiol dioxygenase), iron-bound wild type; experiment: SPR binding of peptide/protein substrates to immobilised ADO; details: 4 °C; for Fold improvement in binding affinity (stronger) relative to native 14-residue peptide: relative to native IL32 peptide; for Kd / Equilibrium dissociation constant KD: SPR steady state, 1:1 binding model, biotinylated ADO on Biotin CAP chip, 20 mM Hepes pH 7.5, 500 mM NaCl, 10 mM DTT, 0.1% tween-20, geometric mean (± SD) of minimum three independent measurements; for Kd: read-out: Equilibrium dissociation constant KD
# Description: ADO catalyzes the O2-dependent sulfinylation of Nt-cys residues, which reportedly bind to the iron cofactor in a monodentate arrangement through ligation of the thiol group ([14], [15]). To test the importance of Nt-cys modifications and substitutions on ADO association, a SPR assay was established. […] Data collected under steady state conditions is presented in the main text and kinetic constants are provided in the Tables S1–S8 (alongside steady state measurements). All measurements were collected at 4 °C to minimize enzyme activity.
# SPR measurements were made using a Biacore T200 (Cytiva) instrument and data were analyzed using the Biacore Insight Evaluation Software (Cytiva; https://www.cytivalifesciences.com/en/us/shop/protein-analysis/spr-label-free-analysis/spr-software-and-extensions/biacore-insight-evaluation-software-p-23528). Biotinylated-ADO was immobilized on a Biotin CAP chip (Cytiva) with a target density of ∼2500 to 3000 RU and peptide/protein substrates were injected over the chip. […] A buffer comprising 20 mM Hepes pH 7.5, 500 mM NaCl, 10 mM DTT, and 0.1% (v/v) tween-20 was used as the running buffer at a flow rate of 50 μl/min.
# For metal-chelation experiments, a mixture of 10 mM 1, 10-phenanthroline and 100 mM EDTA (pH 8) was injected onto the chip using 10 × 60 s injections at a 100 μl/min flow rate. […] The instrument and chip were primed into buffer excluding reducing agents before conducting metal chelation and iron reconstitution.
# [2] = target: T2, 2-aminoethanethiol (cysteamine) …; experiment: SPR
# [3] = target: T3, 2-aminoethanethiol (cysteamine) …; experiment: SPR; Biacore T200; biotinylated ADO immobilized on a Biotin CAP chip (∼2500 to 3000 RU), peptide/protein substrates injected; 4 °C; 20 mM Hepes pH 7.5, 500 mM NaCl, 10 mM DTT, 0.1% tween-20; 50 μl/min; multicycle, equilibrium steady state affinity 1:1 binding model; details: both partners purified
molecule,measurement,setting,value
H-CFPAVLSDDMKKLK-NH2 (C-terminus assumed) [IL32-K5A],Fold improvement in binding affinity (stronger) relative to native 14-residue peptide,[1]; SPR,approximately 2 fold
SKGLAALPHSCLER-NH2 [RGS5-C2S],Kd,[1],42000 ± 5500 nM
NC(=O)[C@@H]1CCCN1C(=O)[C@H](Cc1ccccc1)NC(=O)[C@@H](N)CS [IL32 tripeptide] (H-Cys-Phe-Pro-NH2; C-terminus assumed),Kd,[1],130 ± 3.7 nM
same,Fold improvement in binding affinity (stronger) relative to native 14-residue peptide,[1]; SPR,~2 fold
H-CAPKVLSDDMKKLK-NH2 (C-terminus assumed) [IL32-F3A],Fold decrease in binding affinity (weaker/higher KD) relative to native 14-residue peptide,"[1]; SPR, relative to native RGS5 or IL32 peptide",~8 fold
RGS5-Ox: Nt-sulfinylated RGS5 peptide acquired through preincubation with ADO ([Cys(O2H)]KGLAALPHSCLER),Equilibrium dissociation constant KD,[1],No binding
CC(C)C[C@H](NC(=O)CNC(=O)[C@H](CCCCN)NC(=O)[C@@H](N)CS)C(=O)N[C@@H](C)C(=O)N[C@@H](C)C(=O)N[C@@H](CC(C)C)C(=O)N[C@@H](C)C(=O)N[C@@H](Cc1c[nH]cn1)C(=O)N[C@@H](CO)C(=O)N[C@@H](CS)C(=O)N[C@@H](CC(C)C)C(=O)N[C@@H](CCC(=O)O)C(=O)N[C@@H](CCCNC(=N)N)C(N)=O [RGS5-P9A] (H-CKGLAALAHSCLER-NH2),Kd,[1],250 ± 23 nM
K3Y: RGS5 third position mutant peptide (CYGLAALPHSCLER),Equilibrium dissociation constant KD,[1],the most tolerated
K3W: RGS5 third position mutant peptide (CWGLAALPHSCLER),Equilibrium dissociation constant KD,[1],the most tolerated
K3L: RGS5 third position mutant peptide (CLGLAALPHSCLER),Equilibrium dissociation constant KD,[1],the most tolerated
H-CFAKVLSDDMKKLK-NH2 (C-terminus assumed) [IL32-P4A],Fold improvement in binding affinity (stronger) relative to native 14-residue peptide,[1]; SPR,approximately 2 fold
RGS5-C2A: RGS5 peptide with Nt-cys to alanine (AKGLAALPHSCLER),Equilibrium dissociation constant KD,[1],No binding
CC(C)C[C@H](NC(=O)CNC(=O)[C@H](CCCCN)NC(=O)[C@@H](N)CS)C(=O)N[C@@H](C)C(=O)N[C@@H](C)C(=O)N[C@@H](CC(C)C)C(=O)N1CCC[C@H]1C(=O)N[C@@H](Cc1c[nH]cn1)C(=O)N[C@@H](CO)C(=O)N[C@@H](CS)C(=O)N[C@@H](CC(C)C)C(=O)N[C@@H](C)C(=O)N[C@@H](CCCNC(=N)N)C(N)=O [RGS5-E14A] (H-CKGLAALPHSCLAR-NH2),Kd,[1],260 ± 42 nM
Ac-RGS5: Nt-acetylated RGS5 peptide (Ac-CKGLAALPHSCLER; cysteine pairing not given here),Equilibrium dissociation constant KD,[1],No binding
K3R: RGS5 third position mutant peptide (CRGLAALPHSCLER),Equilibrium dissociation constant KD,[1],the most tolerated
CC(C)C[C@H](NC(=O)CNC(=O)[C@H](CCCCN)NC(=O)[C@@H](N)CS)C(=O)N[C@@H](C)C(=O)N[C@@H](C)C(=O)N[C@@H](CC(C)C)C(=O)N1CCC[C@H]1C(=O)N[C@@H](Cc1c[nH]cn1)C(=O)N[C@@H](CO)C(=O)N[C@@H](CS)C(=O)N[C@@H](C)C(=O)N[C@@H](CCC(=O)O)C(=O)N[C@@H](CCCNC(=N)N)C(N)=O [RGS5-L13A] (H-CKGLAALPHSCAER-NH2),Kd,[1],260 ± 32 nM
CKGLAALPHSCLEA [RGS5-R15A],Kd,[2],210 nM
"CFAKVLSDDMKKLK (peptide, UniProt P24001 2-15, looked up, IL32 residues 2-15 (initiating methionine denoted as 1), P4A; source: synthetic peptide (SPPS, HPLC purified)) [IL32-P4A peptide]",Kd,[3],150 ± 1.2 nM
full-length RGS5 (RGS5^FL) (natural protein) CKGLAALPHSCLERAKEIKIKLGILLQKPDSVGDLVIPYNEKPEKPAKTQKTSLDEALQWRDSLDKLLQNNYGLASFKSFLKSEFSEENLEFWIACEDYKKIKSPAKMAEKAKQIYEEFIQTEAPKEVNIDHFTKDITMKNLVEPSLSSFDMAQKRIHALMEKDSLPRFVRSEFYQELIK,Kd,[3],3000 ± 58 nM
RGS5^FL-C2S (natural protein) SKGLAALPHSCLERAKEIKIKLGILLQKPDSVGDLVIPYNEKPEKPAKTQKTSLDEALQWRDSLDKLLQNNYGLASFKSFLKSEFSEENLEFWIACEDYKKIKSPAKMAEKAKQIYEEFIQTEAPKEVNIDHFTKDITMKNLVEPSLSSFDMAQKRIHALMEKDSLPRFVRSEFYQELIK,Kd,[3],63000 ± 610 nM
"CFPAVLSDDMKKLK (peptide, UniProt P24001 2-15, looked up, IL32 residues 2-15 (initiating methionine denoted as 1), K5A; source: synthetic peptide (SPPS, HPLC purified)) [IL32-K5A peptide]",Kd,[3],140 ± 2 nM
"CAGLAALPHSCLER (peptide, UniProt O15539 2-15, looked up, RGS5 residues 2-15 (initiating methionine denoted as 1), K3A; source: synthetic peptide (SPPS, HPLC purified)) [RGS5-K3A peptide]",Kd,[3],540 ± 88 nM
"CYGLAALPHSCLER (peptide, UniProt O15539 2-15, looked up, RGS5 residues 2-15 (initiating methionine denoted as 1), K3Y; source: synthetic peptide) [RGS5-K3Y peptide]",binding result,[3],binds
"CWGLAALPHSCLER (peptide, UniProt O15539 2-15, looked up, RGS5 residues 2-15 (initiating methionine denoted as 1), K3W; source: synthetic peptide) [RGS5-K3W peptide]",binding result,[3],binds
"CDGLAALPHSCLER (peptide, UniProt O15539 2-15, looked up, RGS5 residues 2-15 (initiating methionine denoted as 1), K3D; source: synthetic peptide) [RGS5-K3D peptide]",Kd,[3],39000 ± 1200 nM
"CRGLAALPHSCLER (peptide, UniProt O15539 2-15, looked up, RGS5 residues 2-15 (initiating methionine denoted as 1), K3R; source: synthetic peptide) [RGS5-K3R peptide]",binding result,[3],binds
"CLGLAALPHSCLER (peptide, UniProt O15539 2-15, looked up, RGS5 residues 2-15 (initiating methionine denoted as 1), K3L; source: synthetic peptide) [RGS5-K3L peptide]",binding result,[3],binds
"CAPKVLSDDMKKLK (peptide, UniProt P24001 2-15, looked up, IL32 residues 2-15 (initiating methionine denoted as 1), F3A; source: synthetic peptide (SPPS, HPLC purified)) [IL32-F3A peptide]",Kd,[3],2200 ± 72 nM
"CKALAALPHSCLER (peptide, UniProt O15539 2-15, looked up, RGS5 residues 2-15 (initiating methionine denoted as 1), G4A; source: synthetic peptide (SPPS, HPLC purified)) [RGS5-G4A peptide]",Kd,[3],710 ± 15 nM
"CKPLAALPHSCLER (peptide, UniProt O15539 2-15, looked up, source: synthetic peptide) [RGS5-G4P peptide]",binding result,[3],binds
"CKKLAALPHSCLER (peptide, UniProt O15539 2-15, looked up, RGS5 residues 2-15 (initiating methionine denoted as 1), G4K; source: synthetic peptide) [RGS5-G4K peptide]",Kd,[3],12000 ± 1500 nM
"SKGLAALPHSCLER (peptide, UniProt O15539 2-15, looked up, RGS5 residues 2-15 (initiating methionine denoted as 1), Nt-cys to serine; source: synthetic peptide (SPPS, HPLC purified)) [RGS5-C2S peptide]",Kd,[3],~40000 nM
CKGLAALPHSALER [RGS5-C12A],Kd,[2],300 nM
"CFPKVASDDMKKLK (peptide, UniProt P24001 2-15, looked up, IL32 residues 2-15 (initiating methionine denoted as 1), L7A; source: synthetic peptide (SPPS, HPLC purified)) [IL32-L7A peptide]",Kd,[3],570 ± 12 nM
"SFPKVLSDDMKKLK (peptide, UniProt P24001 2-15, looked up, IL32 residues 2-15 (initiating methionine denoted as 1), Nt-cys to serine; source: synthetic peptide (SPPS, HPLC purified)) [IL32-C2S peptide]",Kd,[3],~40000 nM
"RGS5^FL-C2A: full-length RGS5 C2A mutant (protein, left off: His tag, N-terminal, cleaved | SUMO, N-terminal, cleaved, full-length RGS5 C2A mutant) MAKGLAALPHSCLERAKEIKIKLGILLQKPDSVGDLVIPYNEKPEKPAKTQKTSLDEALQWRDSLDKLLQNNYGLASFKSFLKSEFSEENLEFWIACEDYKKIKSPAKMAEKAKQIYEEFIQTEAPKEVNIDHFTKDITMKNLVEPSLSSFDMAQKRIHALMEKDSLPRFVRSEFYQELIK",Equilibrium dissociation constant KD,[1],prevented binding
